# B1: GST-RBD (domain or fragment)
# chain: GLTSKESLFVRINAAHGFSLIQVDNTKVTMKEILLKAVKRRKGSQKVSGPQYRLEKQSEPNVAVDLDSTLESQSAWEFCLVRENSSRAD
# Target: KRas WT G domain (UniProt P01116-1 1-166)
# Assay: pull-down
binder,measurement,value
B1,binding result,binds

# Source: publication PMC9171633 (Proceedings of the National Academy of Sciences of the …, 2022)
